Reference: patent publication US20240115722A1
Positions count from the first letter of the chain named.

B1: Fab derived from the H5K3 antibody (Fab, part only; not given: CH1 and upper hinge limits, V domains shown, not shown: another chain or arm of the molecule; a dimerising Fc or GST)
VH: EVQLVESGGGLVQPGGSLKLSCAASGFTFSTFGIHWVRQAPGKGLEWVAYISGASTTIYYADSVKGRFTISRDNSKNTLYLQMNSLRAEDTAVYYCARYGTSFPYGLDYWGQGTLVTVSS
VL: DIVMTQSPDSLAVSLGERATINCKASQSVDYDGDSYMNWYQQKPGKAPKLLIYGASNLESGIPDRFSGSGSGTDFTLTISRLEPEDAAVYYCQQSNEDPFTFGQGTKLEIK
B2: Fab derived from the H4K3 antibody (Fab, part only; not given: CH1 and upper hinge limits, V domains shown, not shown: another chain or arm of the molecule; a dimerising Fc or GST)
VH: B1 VH with S63T
VL: B1 VL

Biological target: human EPH receptor A5 (EphA5) expressed on cells (human) (UniProt P54756)
Sequence (P54756 25-1037 limits assumed): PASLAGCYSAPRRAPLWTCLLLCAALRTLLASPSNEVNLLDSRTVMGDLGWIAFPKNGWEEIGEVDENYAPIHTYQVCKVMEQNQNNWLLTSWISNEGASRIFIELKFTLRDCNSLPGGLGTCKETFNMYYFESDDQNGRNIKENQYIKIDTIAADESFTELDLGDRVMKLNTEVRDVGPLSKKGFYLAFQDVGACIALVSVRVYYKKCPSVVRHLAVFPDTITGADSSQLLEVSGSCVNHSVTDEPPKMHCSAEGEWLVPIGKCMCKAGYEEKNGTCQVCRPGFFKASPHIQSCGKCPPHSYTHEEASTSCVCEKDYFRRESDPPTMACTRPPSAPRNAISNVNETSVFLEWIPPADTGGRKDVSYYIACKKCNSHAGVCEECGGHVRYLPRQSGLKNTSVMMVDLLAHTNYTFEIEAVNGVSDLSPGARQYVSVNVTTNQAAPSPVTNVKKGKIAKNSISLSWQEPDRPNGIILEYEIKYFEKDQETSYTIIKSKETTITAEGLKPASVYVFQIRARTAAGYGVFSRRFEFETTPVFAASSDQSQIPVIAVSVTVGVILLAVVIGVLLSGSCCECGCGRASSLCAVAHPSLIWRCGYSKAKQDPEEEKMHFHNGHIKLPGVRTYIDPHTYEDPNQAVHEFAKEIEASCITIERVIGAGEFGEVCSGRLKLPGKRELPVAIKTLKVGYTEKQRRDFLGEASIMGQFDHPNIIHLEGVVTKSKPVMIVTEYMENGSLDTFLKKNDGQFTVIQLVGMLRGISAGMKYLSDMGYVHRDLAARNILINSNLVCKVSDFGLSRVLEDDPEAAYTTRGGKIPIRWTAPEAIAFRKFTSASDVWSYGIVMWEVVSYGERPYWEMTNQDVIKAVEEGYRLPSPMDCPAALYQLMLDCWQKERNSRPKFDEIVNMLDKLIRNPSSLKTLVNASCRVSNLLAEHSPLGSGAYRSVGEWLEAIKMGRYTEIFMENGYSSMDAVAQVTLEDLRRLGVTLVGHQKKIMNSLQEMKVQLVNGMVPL
Assay: high-throughput flow cytometry, HEK293T cells expressing wild-type EPHA5 versus vector alone, Fab at 0.50 µg/ml

Signal:Background | Binder
70 | B1
66 | B2
